Data published in publication PMC4634812, “Characterization of proliferating cell nuclear antigen (PCNA) from pathogenic yeast Candida albicans and its functional analyses in S. Cerevisiae” (BMC Microbiology, 2015).

How the values were obtained:
[1] = target: Candida albicans PCNA G178S mutant (Candida albicans SC5314) (UniProt Q5AMN0); assay: cross-linking; about 20 μg protein in 20 mM HEPES pH 7.5 with glutaraldehyde, 5 min at 37 °C, then 12 % SDS-PAGE
[2] = target: the molecule itself; assay: as above
[3] = target: the molecule itself; assay: native gel or EMSA; 12 % non-denaturing polyacrylamide gel, ~1 μg of each purified protein, Coomassie stain
[4] = target: T1, Yeast DNA polymerase eta (ScPolη) (S. cerevisiae, UniProt Q04049 1-632); assay: SPR; settings: both partners purified
T1 construct: DNA polymerase eta (Rad30) of S. cerevisiae; also called Rad30; ScRAD30; source: S. cerevisiae YRP654 (protease deficient), GAL-PGK-GST-ScRAD30 construct, purified by the same protocol as PCNA
T1 sequence (looked up): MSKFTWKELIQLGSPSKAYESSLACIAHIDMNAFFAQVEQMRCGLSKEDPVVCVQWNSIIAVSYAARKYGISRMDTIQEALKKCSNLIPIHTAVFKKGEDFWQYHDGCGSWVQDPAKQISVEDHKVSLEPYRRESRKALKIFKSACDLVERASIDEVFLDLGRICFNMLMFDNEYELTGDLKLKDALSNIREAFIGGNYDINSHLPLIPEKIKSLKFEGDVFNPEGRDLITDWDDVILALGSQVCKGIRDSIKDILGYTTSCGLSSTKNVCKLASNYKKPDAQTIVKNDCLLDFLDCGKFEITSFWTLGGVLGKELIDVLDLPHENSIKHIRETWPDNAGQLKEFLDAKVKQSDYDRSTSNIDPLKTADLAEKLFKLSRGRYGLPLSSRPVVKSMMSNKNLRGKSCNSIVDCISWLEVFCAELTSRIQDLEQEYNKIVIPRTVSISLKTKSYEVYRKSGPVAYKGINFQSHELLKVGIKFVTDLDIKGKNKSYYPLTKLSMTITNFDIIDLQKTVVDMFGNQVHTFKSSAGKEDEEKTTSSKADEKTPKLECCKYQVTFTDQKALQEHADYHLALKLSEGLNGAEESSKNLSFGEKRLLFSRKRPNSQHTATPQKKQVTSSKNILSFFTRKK

[5] = target: T1, Yeast DNA polymerase eta (ScPolη); assay: SPR; Bio-Rad XPR 36; CaPCNA, ScPCNA or BSA (~350 RU) amine-coupled on a GLC chip; ScPolη injected at 25-500nM; 25 mM HEPES pH 7.5, 10 % glycerol, 200 mM sodium acetate, 8 mM magnesium acetate, 1 mM DTT, 0.005 % Tween-20, 0.2 mg/ml BSA; 20 °C; 1:1 Langmuir fit; settings: both partners purified

In the case of “Candida albicans PCNA G178S mutant (from UniProt Q5AMN0 1-259) (natural protein)”, the stoichiometry N [1] is reported as 2.

B1: Candida albicans proliferating cell nuclear antigen (CaPCNA), wild type (natural protein, Candida albicans SC5314, UniProt Q5AMN0 1-259, looked up)
chain: MLEGKFEEAALLKKVVEAIKDCVKKCNFNCSEHGITVQAVDDSRVLLVSLLIGQTSFSEYRCDRDVTLGIDLESFSKIIKSANNEDFLTLLAEDSPDQIMAILEEKQKEKISEYSLKLMDIDSEFLQIDDMEYDAVVNMPSSDFAKLVRDLKNLSESLRVVVTKDSVKFTSEGDSGSGSVILKPYTNLKNERESVTISLDDPVDLTFGLKYLNDIVKAATLSDVITIKLADKTPALFEFKMQSGGYLRFYLAPKFDDDE
notes: PCNA (POL30) of Candida albicans SC5314, orf19.4616 of the Candida Genome Database, 259 amino acids; the orf was amplified from genomic DNA with primers from the start to the stop codon; A few residues of the Prescission site and the cloning site may remain at the N-terminus after cleavage; also called orf19.4616; CaO19.12086; source: E. coli BL21-DE3, purified (glutathione beads, eluted by …)
B1 was tested, and the “stoichiometry N” value [2] was 6, the “stoichiometry N” value [3] was 3 and the Kd [4] was 10.6 nM. The koff [4] was 0.000166 s⁻¹.

B2: Saccharomyces cerevisiae PCNA (ScPCNA), wild type (natural protein, S. cerevisiae)
chain: MLEAKFEEASLFKRIIDGFKDCVQLVNFQCKEDGIIAQAVDDSRVLLVSLEIGVEAFQEYRCDHPVTLGMDLTSLSKILRCGNNTDTLTLIADNTPDSIILLFEDTKKDRIAEYSLKLMDIDADFLKIEELQYDSTLSLPSSEFSKIVRDLSQLSDSINIMITKETIKFVADGDIGSGSVIIKPFVDMEHPETSIKLEMDQPVDLTFGAKYLLDIIKGSSLSDRVGIRLSSEAPALFQFDLKSGFLQFFLAPKFNDEE
notes: PCNA (POL30) of S. cerevisiae; The cloning of the bacterial ScPCNA construct is not described; also called yeast PCNA; ScPol30; source: E. coli BL21-DE3, purified (glutathione beads, eluted by Prescission protease)
B2 was tested, and the Kd [5] was 80.1 nM, the koff [5] was 0.00138 s⁻¹ and the “stoichiometry N” value [3] was 3.
